Test results published in article PMC8651787, “Tankyrase-1-mediated degradation of Golgin45 regulates glycosyltransferase trafficking and protein glycosylation in Rab2-GTP-dependent manner” (Communications Biology, 2021).
Numbering of substitutions follows the chain as printed. Numbers in names are those of the source.

How the values were obtained:
TNKS1-Arc1 (183–335aa) [1] = molecular target: T1, TNKS1-Arc1 (183–335aa) (human, UniProt O95271 183-335); assay: pull-down; 150 μg GST fusion protein on Glutathione-Sepharose 4B beads; 0.1 μM prey protein; 25 mM Hepes pH 7.4, 150 mM NaOAc, 0.2% Triton, 1 mM DTT; 4 °C, 2 h; western blot; settings: both partners purified
T1 construct: human Tankyrase-1 (TNKS1), ARC (Ankyrin Repeat Cluster) domain 1, residues 183-335; pET24b plasmid; also called Arc I; ArcI; source: E. coli BL21 (DE3), purified (Ni-NTA Agarose); not shown: His6, C-terminal, kept
T1 sequence (looked up): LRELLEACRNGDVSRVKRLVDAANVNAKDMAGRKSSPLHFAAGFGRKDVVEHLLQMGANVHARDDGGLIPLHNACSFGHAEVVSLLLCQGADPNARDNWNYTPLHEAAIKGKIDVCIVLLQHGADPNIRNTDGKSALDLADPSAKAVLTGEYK

TNKS1-Arc1 (183–335aa) [2] = molecular target: T1, TNKS1-Arc1 (183–335aa); assay: BLI; Octet RED96; GST fusion proteins loaded on GST biosensors at 10 ug/ml; TNKS1-Arc1 as analyte (0.16-4.56 μM); 25 °C; 25 mM Hepes pH 7.4, 150 mM NaOAc, 0.2% Triton, 1 mM DTT; steady-state fit; settings: both partners purified

B1: GST-Golgin45 N70 S49D (domain or fragment, human, UniProt Q9H2G9 1-70, looked up)
chain: MTTKNLETKVTVTSSPIRGAGDGMETEEPPKSVEVTSGVQSRKHHSLQDPWKKAVPSESPGVLQLGKMLT
notes: Golgin45 (BLZF1), N-terminal residues 1-70, phospho-mimicking S49D in the Cdc2 consensus 49SPWK52; also called GST-Golgin45 S49D mutant; source: E. coli BL21 (DE3), purified (Glutathione HiCap Matrix)
B1: binds (TNKS1-Arc1 (183–335aa) [1]).

B2: GST-Golgin45 N-terminal domain (amino acid 1–70) (domain or fragment, human, UniProt Q9H2G9 1-70, looked up)
chain: B1 chain with D49S
notes: Golgin45 (BLZF1), N-terminal residues 1-70; pGEX-6p-1 plasmid; also called GST-Golgin45 N70 wt; Golgin45 N70 WT; source: E. coli BL21 (DE3), purified (Glutathione HiCap Matrix)
Binder B2 has a Kd (TNKS1-Arc1 (183–335aa) [2]) of roughly 1460 nM.

B3: GST-Golgin45 N70 S15D (domain or fragment, human, UniProt Q9H2G9 1-70, looked up)
chain: B1 chain with S15D, D49S
notes: Golgin45 (BLZF1), N-terminal residues 1-70, phospho-mimicking S15D in the Cdc2 consensus 15SPIR18; also called S15D mutated GST-Golgin45; Golgin45 S15D mutant; source: E. coli BL21 (DE3), purified (Glutathione HiCap Matrix)
With B3 the Kd (TNKS1-Arc1 (183–335aa) [2]) was 2780 ± 80 nM.
